From patent US20100036106, “High-Affinity RNA Aptamer Molecule Against Glutathione-S-Transferase Protein” (NEC Soft, Ltd., published 2010) come the findings set out here.

The data set concerns the target Glutathione S-transferase (GST) (Schistosoma japonicum, UniProt P08515 P08515:2-218). The data set can be described thus: SPR; Kd fitted with BIA Evolution 3.1 but value only in figure; RNA immobilized via poly(A)/poly(dT). The following applies: chain copies: 2 inferred. The text has this: Synthetic biotinylated polydT (Hokkaido System Science) is allowed to bind to the surface of an SA BIACORE chip (Biacore). The single-stranded RNA molecules (RNA adaptor molecules) comprising polyA (Aₙ) added on the 5′-terminal side are annealed with the synthetic biotinylated polydT immobilized on the chip surface. As a result, the single-stranded RNA molecules (RNA adaptor molecules) are immobilized thereon via the hybrid bonding between the polydT and the polyA (Aₙ).
This chip on which the single-stranded RNA molecules (RNA adaptor molecules) are immobilized is utilized to measure the process of formation of complexes of the single-stranded RNA molecules (RNA adaptor molecules) and GST proteins and the process of dissociation thereof by use of a surface plasmon resonance detection apparatus. The results are analyzed to determine the equilibrium dissociation constants of the complexes.
Parameter fitting is conducted by use of BIA Evolution ver. 3.1 for the concentrations of the GST protein in the poured GST protein solutions and the time-dependent changes in signal intensity measured in this process, to thereby determine equilibrium dissociation constant KD.

Glutathione S-transferase (GST), sequence (P08515 2-218, one chain of several): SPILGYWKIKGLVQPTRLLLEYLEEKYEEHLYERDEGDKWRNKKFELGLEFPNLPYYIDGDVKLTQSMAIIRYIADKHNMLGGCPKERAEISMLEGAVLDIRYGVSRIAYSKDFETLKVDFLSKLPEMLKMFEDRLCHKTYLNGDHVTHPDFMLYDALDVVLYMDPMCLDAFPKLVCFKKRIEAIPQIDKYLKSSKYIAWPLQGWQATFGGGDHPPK

B1: No. 26 clone RNA aptamer with 5' poly(A) (ssRNA)
RNA: GGUAGAUACGAUGGAUACCGAAAAAUUAGUGUCGUUGACUGCAACAUGACGCGCAGCCAA
As for B1, the binding result was “binds”.

B2: No. 5 clone RNA aptamer with 5' poly(A) (ssRNA)
RNA: GGUAGAUACGAUGGACUAACUGCGCAAAUUACUCGUAUUAGCCGACAUGACGCGCAGCCAA
Take B2: the binding result is listed as “binds”.

B3: No. 3 clone RNA aptamer with 5' poly(A) (ssRNA)
RNA: GGUAGAUACGAUGGAUGGUUGUGUAAAGGUGGUCGUAUCCGCCGACAUGACGCGCAGCCAA
With B3, the binding result is on record as “binds”.
